{"source": "paper PMC548347", "binders": {"B1": {"name": "RGA oligonucleotide (dsDNA)", "DNA 1": "GGCTGTCGACGAAGATAGAGGACTTAATCGATATC", "DNA 2": "GGGATATCGATTAAGTCCTCTATCTTCGTCGACAG"}}, "target": "T1, SSB (single-strand binding protein) (Sulfolobus solfataricus, UniProt Q97W73 1-148)", "T1 sequence": "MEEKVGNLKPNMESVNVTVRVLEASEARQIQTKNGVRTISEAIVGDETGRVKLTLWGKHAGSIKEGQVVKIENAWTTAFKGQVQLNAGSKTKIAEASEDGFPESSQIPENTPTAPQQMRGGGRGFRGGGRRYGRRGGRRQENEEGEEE", "assay": "EMSA", "data": [{"binder": "B1", "values": [{"measurement": "binding result", "value": "binds"}]}]}
